Values quoted from earlier work as cited in patent publication US20240209047A1, “GROWTH FACTOR CONJUGATES” (priority 2021, published 2024).

Test system: non-healing diabetic ulcers
Conditions: treated for 20 weeks or until complete wound closure; placebo 25%

B1: PDGF: topical gel containing recombinant human PDGF-BB (Regranex®) (protein, UniProt P01127 82-190, looked up)
Platelet-derived growth …: SLGSLTIAEPAMIAECKTRTEVFEISRRLIDRTNANFLVWPPCVEVQRCSGCCNNRNVQCRPTQVQLRPVQVRKIEIVRKKPIFKKATVTLEDHLACKCETVAAARPVT
modifications: Platelet-derived growth factor subunit B topical gel (becaplermin)
In the case of B1, the patients healed is listed as 48%.
